Test results: patent US8022177B2, “Peptides and calcium regulation in mammalian cells” (The Board of Trustees of the University of Illinois, priority 2005, dated 2011)

Assays:
Type in all cases: cell-based
Cav3.1 [1] = target: T1, Cav3.1 (Homo sapiens, UniProt O43497); test: Whole-cell patch clamp of Cav3.1 current in Cav3.1/HEK cells transfected with chimeras, truncations and point mutants (Example 6); settings: FIG. 38, FIG. 41
T1 construct: expressed in transfected cells; host or cells: HEK-293, stably transfected
T1 sequence (O43497 whole entry, the tested form may be a part): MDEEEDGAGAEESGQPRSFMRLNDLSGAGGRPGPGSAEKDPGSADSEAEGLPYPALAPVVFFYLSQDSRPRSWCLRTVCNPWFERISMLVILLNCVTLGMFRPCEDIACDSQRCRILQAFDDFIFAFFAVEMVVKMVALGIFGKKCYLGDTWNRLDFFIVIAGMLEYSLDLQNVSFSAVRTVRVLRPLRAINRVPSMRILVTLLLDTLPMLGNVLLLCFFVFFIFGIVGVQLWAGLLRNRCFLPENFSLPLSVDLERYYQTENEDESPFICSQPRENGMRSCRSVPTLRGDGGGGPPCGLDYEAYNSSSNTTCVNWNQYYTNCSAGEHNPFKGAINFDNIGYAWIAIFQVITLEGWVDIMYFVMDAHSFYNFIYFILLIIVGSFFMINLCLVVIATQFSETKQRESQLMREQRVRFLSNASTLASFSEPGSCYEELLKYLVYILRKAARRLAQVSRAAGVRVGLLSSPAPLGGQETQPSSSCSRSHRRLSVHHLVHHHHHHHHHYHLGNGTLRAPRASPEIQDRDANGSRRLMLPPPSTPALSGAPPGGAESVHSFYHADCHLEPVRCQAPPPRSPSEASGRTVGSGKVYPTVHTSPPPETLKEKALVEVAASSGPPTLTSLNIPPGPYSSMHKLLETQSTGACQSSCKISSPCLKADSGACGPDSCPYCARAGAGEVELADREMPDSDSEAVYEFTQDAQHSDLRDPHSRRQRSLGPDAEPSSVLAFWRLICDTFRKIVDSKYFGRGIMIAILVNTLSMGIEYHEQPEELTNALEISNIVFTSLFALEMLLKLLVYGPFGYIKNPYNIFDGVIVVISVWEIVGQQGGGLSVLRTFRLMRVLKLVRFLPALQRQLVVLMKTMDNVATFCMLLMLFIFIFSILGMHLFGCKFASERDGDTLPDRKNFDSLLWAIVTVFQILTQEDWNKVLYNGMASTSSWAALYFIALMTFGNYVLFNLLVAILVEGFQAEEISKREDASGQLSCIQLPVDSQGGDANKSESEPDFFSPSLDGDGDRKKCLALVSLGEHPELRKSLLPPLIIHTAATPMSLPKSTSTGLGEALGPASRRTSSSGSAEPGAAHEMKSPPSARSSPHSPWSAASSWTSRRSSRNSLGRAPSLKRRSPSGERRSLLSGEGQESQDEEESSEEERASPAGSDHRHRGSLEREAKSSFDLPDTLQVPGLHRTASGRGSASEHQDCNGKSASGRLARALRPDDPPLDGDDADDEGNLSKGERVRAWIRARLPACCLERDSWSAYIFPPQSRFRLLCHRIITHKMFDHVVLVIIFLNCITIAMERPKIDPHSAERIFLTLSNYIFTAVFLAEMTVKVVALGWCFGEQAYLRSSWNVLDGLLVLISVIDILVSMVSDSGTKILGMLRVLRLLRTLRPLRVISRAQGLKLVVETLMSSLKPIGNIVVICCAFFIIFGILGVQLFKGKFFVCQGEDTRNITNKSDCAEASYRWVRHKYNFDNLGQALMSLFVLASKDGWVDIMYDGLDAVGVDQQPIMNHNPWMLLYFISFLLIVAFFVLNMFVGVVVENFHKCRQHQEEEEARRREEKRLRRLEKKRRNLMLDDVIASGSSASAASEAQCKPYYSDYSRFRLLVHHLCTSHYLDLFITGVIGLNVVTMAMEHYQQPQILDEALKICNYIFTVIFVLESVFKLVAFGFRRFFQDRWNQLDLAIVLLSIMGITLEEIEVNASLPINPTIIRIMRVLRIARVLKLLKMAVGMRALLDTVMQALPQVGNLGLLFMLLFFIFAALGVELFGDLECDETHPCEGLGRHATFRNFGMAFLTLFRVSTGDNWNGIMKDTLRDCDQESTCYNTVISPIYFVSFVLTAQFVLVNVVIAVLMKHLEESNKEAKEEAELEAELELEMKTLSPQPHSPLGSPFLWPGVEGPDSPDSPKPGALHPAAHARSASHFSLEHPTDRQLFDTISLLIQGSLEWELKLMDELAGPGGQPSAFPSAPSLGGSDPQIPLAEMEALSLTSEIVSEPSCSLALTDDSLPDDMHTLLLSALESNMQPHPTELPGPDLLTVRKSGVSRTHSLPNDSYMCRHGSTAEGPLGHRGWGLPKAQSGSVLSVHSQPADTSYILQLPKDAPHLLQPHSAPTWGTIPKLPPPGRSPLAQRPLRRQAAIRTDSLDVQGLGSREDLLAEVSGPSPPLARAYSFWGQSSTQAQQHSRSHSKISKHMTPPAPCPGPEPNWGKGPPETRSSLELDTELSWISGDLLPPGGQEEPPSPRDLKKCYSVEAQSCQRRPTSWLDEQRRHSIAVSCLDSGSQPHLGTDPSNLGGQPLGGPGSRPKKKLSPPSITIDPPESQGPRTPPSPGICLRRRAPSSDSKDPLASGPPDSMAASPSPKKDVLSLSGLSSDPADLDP
Method: Transfection. HEK-293 cells stably transfected with either Cav3.1 or Cav3.2 were transiently transfected, at 50% confluency, with a bicistronic vector encoding both GFP and γ subunit cDNA's using Lipofectamine 2000 reagent (Invitrogen, Carlsbad, Calif.) as per the manufacturer's recommendations. Cells were visualized using an Nikon inverted microscope with an FITC filter.
Electrophysiology. Whole cell Ca^2+ currents were recorded using an Axon Instruments Axopatch-1D amplifier and Clampex 8.0 software. Pipettes were made from boroscillicate glass and had typical resistances of 2-4 Mohms. The pipette solution contained (in mM) 130 NaCl, 10 EGTA, 2 or 5 MgCl2, 1 CaCl2, 10 HEPES, 3 Tris-ATP, and 0.3 Li2GTP. Two different bath solutions were used. The first, used for experiments with γ subunit chimeras, contained (in mM) 130 NaCl, 1 MgCl2, 2 CaCl2, 10 glucose, 10 HEPES, and 0.03 TTX. The second, used for experiments with γ subunit containg point mutations, contained (in mM) 137 NaCl, 1 KCl, 1 MgCl2, 0.33 NaH2PO4, 2 CaCl2, 10 HEPES. All solutions were adjusted to pH 7.4 with NaOH and 280 mOsm with sucrose. No Cl^− currents were evident in any HEK-293 cells line, stably transfected or not, and no attempt was made to eliminate Cl^− currents from data records.
All electrophysiological data are from current records in which voltage offset was adjusted, pipette capacitance and whole cell capacitance were compensated and series resistance was compensated to >80%. Currents were filtered at 10 kHz and recorded at 40 kHz. In some cases, current records were off-line filtered at 1K. Current voltage relationships were recorded using an on-line P/−4 subtraction procedure to eliminate linear capacitative and leakage currents. Only recordings with less than 50 pA leakage current were used.
Several different protocols were used to determine the biophysical characteristics of currents in HEK-293 cells. The voltage dependence of activation was determined using “tail” currents. Cells were depolarized from a holding potential of −100 mV to test potentials ranging from −90 mV to +60 mV. Pulse durations varied and corresponded to the time to peak current measured at the corresponding test potentials. Following the conditioning pulse cells were re-polarized to −60 mV and the amplitude of the resulting “tail” current measured. The voltage dependence of inactivation was measured by depolarizing the cells to voltages ranging from −120 mV to 50 mV for 500 ms to inactivate the Ca^2+ channels. After this conditioning step the membrane was returned to the holding potential (−100 mV) for 3 ms and then depolarized a second time to +20 mV for 150 ms during which time the peak current was measured. Time constants for inactivation were measured by fitting a single exponential equation to the decay phase of currents elicited by voltage steps from −50 to +30 mV from a holding potential of −100 mV. Time constants for deactivation were measured by fitting either a single or a double exponential to the decay phase of tail currents.
To account for the inherent variation in calcium current density in the HEK-Cav3.1 stable cell line the averaged current density of each test group of cells was normalized to the mean current density of a control group of cells. A minimum of 5 cells (typically 7 to 10) from each group was used to calculate the mean current densities of test and control cells. At least two independent transfections were performed for each test condition. […]

Cav3.1 [2] = target: T1, Cav3.1; test: Whole-cell patch clamp of Cav3.1 LVA current in HEK/Cav3.1 cells transfected with γ6/γ4 chimeric and truncated constructs (Example 2); settings: Table 1 (Example 2)
Method: Transfection—HEK-293 cell lines stably transfected with Cav3.1 were transiently transfected with vectors containing γ subunit cDNAs using Lipofectamine 2000 reagent (Invitrogen) as per the manufacturer's recommendations. HEK-293 cells were grown to 70-80% confluence before transfection.
Electrophysiology—Whole-cell calcium currents were recorded using an Axopatch-1D patch clamp system and Clampex 8.0 software. Pipettes were fabricated from borosilicate glass and had typical resistances of 2-4 MΩ. The pipette solution contained (in mM): 130 NaCl, 10 EGTA, 2 MgCl2, 1 CaCl2, 10 HEPES, 3 Tris-ATP, and 0.3 Tris-GTP, adjusted to pH 7.4 with NaOH and 280 mOsm with sucrose. The bath solution contained (in mM): 137 NaCl, 1 KCl, 1 MgCl2, 0.33 NaH2PO4, 2 CaCl2, 10 HEPES, and 30 μM TTX, adjusted to pH 7.4 with NaOH and 280 mOsm with sucrose.
Recordings from HEK-293 cells were made 48-96 hours post-transfection, at which time expression, as measured by GFP fluorescence, peaked. All HEK-293 data is from current records in which pipette and whole-cell capacitance were about 100% compensated and series resistance was compensated to >80%. Series resistance values were typically <10 MΩ (megaohms), and no records were used in which the voltage error (as defined by Ver=Imax×Ra) was greater than 5 mV. The holding potential of all protocols used for HEK-293 cells was −100 mV except for steady-state inactivation protocols where the holding potential was −120 mV. Current-voltage relationships for all HEK-293 cells were measured using 50 ms test depolarizations. Peak current amplitudes for activation curves were determined by fitting tail currents, elicited by stepping membrane voltage from varying test potentials to −60 mV, with the Boltzman equation. Test potential steps for activation protocols were of varied durations, corresponding to the time to peak of the elicited current. Inactivation curves were determined by fitting peak amplitudes of currents, observed in a test pulse to −20 mV, following 500 ms steps to varying potentials, with the Boltzman equation. Time to peak was determined using the current-voltage protocol described above. Inactivation time constants were determined by fitting the decay phase of currents to an exponential equation and deactivation time constants were determined by fitting the decay phase of tail currents to an exponential equation. […] When a double exponential equation was used to fit Cav3.1 tail currents, the magnitude of the fast component was about 10 fold that of the slow component. Currents were recorded at 40 kHz and on-line filtered at 5. In some cases currents were off-line filtered at 1 kHz to further reduce noise. Current-voltage relationships and tail currents were recorded from HEK cells using an on-line P/−4 subtraction procedure. The average membrane capacitance of untransfected HEK-293 cells in pilot experiments was 12.5+/−0.4 pF (n=8).
Statistical Analysis—All data are reported as mean±SEM and tested for significance by one-way ANOVA. A value of P<0.05 was considered significant and when significant p-values were encountered groups were compared using the Tukey post-hoc test.

Cav3.1 [3] = target: T1, Cav3.1; test: Whole-cell patch clamp of Cav3.1 dependent LVA calcium current in HEK-293/Cav3.1 cells transiently transfected with γ subunits (Example 1)
Method: 2.3. Transfection. Untransfected HEK-293 cells, HEK-293 cell lines stably transfected with Cav3.1, and HL-1 cells were transiently transfected with vectors containing γ subunit, GFP, and modified CFP cDNAs using Lipofectamine 2000 reagent (InVitrogen) as per the manufacturer's recommendations. HEK-293 cells were grown to 70-80% confluence before transfection. HL-1 cells were grown to 50-75% confluence before transfection.
2.4. Electrophysiology. Whole-cell calcium currents were recorded using an Axopatch-1 D patch clamp system and Clampex 8.0 software. Pipettes were fabricated from borosilicate glass and had typical resistances of 2-4 MΩ. The pipette solution contained (in mM): 130 NaCl, 10 EGTA, 2 MgCl2, 1 CaCl2, 10 HEPES, 3 Tris-ATP, and either 0.3 Li2GTP or 0.3 Tris-GTP, adjusted to pH 7.4 with NaOH and 280 mOsm with sucrose. The bath solution contained (in mM): 137 NaCl (for HEK-293 experiments) or 120 TEACl (for HL-1 experiments), 1 KCl, 1 MgCl2, 0.33 NaH2PO4, 2 CaCl2 (for HEK-293 experiments) or 5 CaCl2 (for HL-1 experiments), 10 glucose (for HL-1 experiments only), 10 HEPES, and 30 μM TTX (for HEK-293 experiments only), adjusted to pH 7.4 with NaOH (for HEK-293 experiments) or TEAOH (for HL-1 experiments) and 280 mOsm with sucrose. NaCl was used as the major salt in the pipette solution order to eliminate any outward K+ currents.
Recordings from HEK-293 cells were made 48-96 h posttransfection, at which time expression, as measured by GFP fluorescence, peaked. HL-1 cells were used for recording 24-36 h post-transfection. Current densities in HEK-293/Cav3.1 cell experiments were normalized to control for variation in current expression in the different frozen stocks of stable cell lines used. […] HL-1 experiments were performed using a single stock of cells. All HEK-293 data are from current records in which pipette and whole-cell capacitance were about 100% compensated and series resistance was compensated to >80%. Whole-cell capacitance and series resistance were not compensated for HL-1 recordings as currents were typically <100 pA. Series resistance values were typically <10 MX, and no records were used in which the voltage error (as defined by Ver=Imax×Ra) was greater than 5 mV. The holding potential of all protocols used for HEK-293 cells was −100 mV except for steady-state inactivation protocols where the holding potential was −120 mV. The holding potential for protocols used for HL-1 cells was −90 mV. Current-voltage relationships for all HEK-293 and HL-1 cells were measured using 50 ms test depolarizations. Peak current amplitudes for activation curves were determined by fitting tail currents, elicited by stepping membrane voltage from varying test potentials to −60 mV, with the Boltzman equation. Test potential steps for activation protocols were of varied durations, corresponding to the time to peak of the elicited current. Inactivation curves were determined by fitting peak amplitudes of currents, observed in a test pulse to −20 mV, following 500 ms steps to varying potentials, with the Boltzman equation. Time to peak was determined using the current-voltage protocol described above. Inactivation time constants were determined by fitting the decay phase of currents to an exponential equation and deactivation time constants were determined by fitting the decay phase of tail currents to an exponential equation. […] Currents were recorded at 40 kHz and on-line filtered at either 5 or 10 kHz. In some cases currents were off-line filtered at 1 kHz to further reduce noise. Current/voltage relationships and tail currents were recorded from HEK cells using an on-line P/−4 subtraction procedure. Calcium currents recorded from HL-1 cells were off-line leak subtracted. The average membrane capacitance of untransfected HEK-293 cells in pilot experiments was 12.5±1.4 pF (n=8). […]

Molecule	Effect on Cav3.1 calcium current density (Cav3.1 [1])	Activation V 0.5 (Cav3.1 [2])	Activation k (Cav3.1 [2])	Deactivation tau @ −100 mV, Fast (Cav3.1 [2])	Inactivation V 0.5 (Cav3.1 [2])	Inactivation k (Cav3.1 [2])	Inactivation tau @−20 mV (Cav3.1 [2])	Time to peak @ −20 mV (Cav3.1 [2])	V peak (Cav3.1 [2])	Effect on current kinetics or voltage dependency (Cav3.1 [3]; HEK-293/Cav3.1)	Peak current density, % of control value (Cav3.1 [3]; HEK-293/Cav3.1, normalized to adCGI vector control, mean±S.E.M.)	Activation V 0.5 (Cav3.1 [3]; Table 2)	Activation k (Cav3.1 [3]; Table 2)	Deactivation tau @ −100 mV, Fast (Cav3.1 [3]; Table 2)	Inactivation Tau @ −20 mV (Cav3.1 [3]; Table 2)	Inactivation V 0.5 (Cav3.1 [3]; Table 2)	Inactivation k (Cav3.1 [3]; Table 2)	Time to peak @ −20 mV (Cav3.1 [3]; Table 2)	V peak (Cav3.1 [3]; Table 2)	Decrease in Cav3.1 current density (Cav3.1 [3]; co-expression with Cav3.1 in HEK-293 cells) [%]
γ1 T12G: γ1 single mutant containing just part of the GXXXA motif (protein, UniProt Q06432 1-222, looked up, variant T12G) Voltage-dependent calcium …: MSQTKMLKVRVGLFCILAGIVLAMTAVVTDHWAVLSPHMEHHNTTCEAAHFGLWRICTKRIPMDDSKTCGPITLPGEKNCSYFRHFNPGESSEIFEFTTQKEYSISAAAIAIFSLGFIILGSLCVLLSLGKKRDYLLRPASMFYAFAGLCILVSVEVMRQSVKRMIDSEDTVWIEYYYSWSFACACAAFILLFLGGLALLLFSLPRMPRNPWESCMDAEPEH	no effect	–	–	–	–	–	–	–	–	–	–	–	–	–	–	–	–	–	–	–
γ1 (T12G, I16A): γ1 double mutant containing the complete GXXXA motif in TM1 (protein, UniProt Q06432 1-222, looked up, variant T12G I16A) Voltage-dependent calcium …: MSQTKMLKVRVGLFCALAGIVLAMTAVVTDHWAVLSPHMEHHNTTCEAAHFGLWRICTKRIPMDDSKTCGPITLPGEKNCSYFRHFNPGESSEIFEFTTQKEYSISAAAIAIFSLGFIILGSLCVLLSLGKKRDYLLRPASMFYAFAGLCILVSVEVMRQSVKRMIDSEDTVWIEYYYSWSFACACAAFILLFLGGLALLLFSLPRMPRNPWESCMDAEPEH	significantly inhibited	–	–	–	–	–	–	–	–	–	–	–	–	–	–	–	–	–	–	–
γ6S: rat calcium channel γ6 subunit, short isoform (AF361344), SEQ ID NO:49 (protein, listed as Rattus norvegicus) MMWSNFFMQEEDRRRTAVGRRRAQEQQNLGLTPEREGKIKLGLLVAIVGATLAVLAVGTEFWVELNTYKTNGSAVCEAAHLGLWKVCIKRLWQADVPAGRETCGPAELPGEANCTYFKFFTTGENAHIFQRTTKKGLLLFVSLEVFRHSVRALLQGVNPETPPAPRLAYEYSWSLGCGVGAGLILLLGGVCFLLLTLPSWPWRSLCPKRGGPTA	–	−36.3 ± 6.2 (n = 4) mV	12.7 ± 1.5 (n = 4)	1.20 ± 0.06 (n = 3) ms	−72.0 ± 5.9 (n = 3) mV	5.9 ± 0.7 (n = 3)	22.9 ± 0.7 (n = 2) ms	6.4 ± 0.5 (n = 3) ms	−27.0 ± 2.5 (n = 5) mV	did not alter current kinetics or voltage dependency	31%±13%	−36.3 ± 6.2 (n = 4) mV	12.7 ± 1.5 (n = 4)	1.20 ± 0.06 (n = 3) ms	22.9 ± 0.7 (n = 2) ms	−72.0 ± 5.9 (n = 3) mV	5.9 ± 0.7 (n = 3)	6.4 ± 0.5 (n = 3) ms	−27.0 ± 2.5 (n = 5) mV	69
